Data from the supplement of paper PMC10724198.
± gives the standard deviation of the averaged measurements.

Assays:
Saccharomyces cerevisiae [1] = assay: protein stability index of tFT-peptide fusion (C-terminal peptide) (PSI (0-1 scale)); higher = more stable (slower turnover); settings: genetic background: wild type; temperature: 30 C
Saccharomyces cerevisiae [2] = assay: as above
Procedure: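 MPS profiling in S. cerevisiae of the tFT-X12 degron library: putative degron peptides plus stable controls, 12 aa, fused to the C-terminus of a sfGFP-mCherry timer. Cells are FACS-sorted into 8 mCherry/sfGFP bins and deep-sequenced. PSI runs from 0 (unstable) to 1 (stable). Backgrounds are wild type, das1Δ and doa10Δ at 30 °C, and wild type, das1Δ, cdc34-1 and cdc53-1 at 37 °C; 2-3 technical replicates each.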

[3] = genetic background: cdc34-1, temperature: 37 C
[4] = genetic background: cdc53-1, temperature: 37 C
[5] = genetic background: das1 deletion, temperature: 30 C
[6] = genetic background: das1 deletion, temperature: 37 C
[7] = genetic background: doa10 deletion, temperature: 30 C
[8] = genetic background: wild type, temperature: 30 C
[9] = genetic background: wild type, temperature: 37 C
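Further: PSI is a weighted mean of sequencing reads over stability bins, variants kept only with over 10 reads, mCherry proximal and sfGFP distal, peptide attached via GGGS linker.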

Row | Sequence | protein stability index (Saccharomyces cerevisiae [1]) | protein stability index (Saccharomyces cerevisiae [2]; [3]) | protein stability index (Saccharomyces cerevisiae [2]; [4]) | protein stability index (Saccharomyces cerevisiae [2]; [5]) | protein stability index (Saccharomyces cerevisiae [2]; [6]) | protein stability index (Saccharomyces cerevisiae [2]; [7]) | protein stability index (Saccharomyces cerevisiae [2]; [8]) | protein stability index (Saccharomyces cerevisiae [2]; [9])
1 | PVLSLPPLSSPP | 0.7068 ± 0.0043 | 0.682 ± 0.032 | 0.7318 ± 0.0057 | 0.682 ± 0.0089 | 0.7244 ± 0.0058 | 0.691 ± 0.034 | 0.691 ± 0.02 | 0.7044 ± 0.0064
2 | PVLYSFSLWIHL | 0.361 ± 0.0082 | 0.34 ± 0.049 | 0.441 ± 0.024 | 0.299 ± 0.028 | 0.457 ± 0.011 | 0.2273 ± 0.00038 | 0.255 ± 0.02 | 0.389 ± 0.02
3 | PVWLFLVRAIKG | 0.431 ± 0.0097 | 0.431 ± 0.048 | 0.455 ± 0.024 | 0.321 ± 0.028 | 0.5125 ± 0.002 | 0.262 ± 0.0072 | 0.33 ± 0.029 | 0.512 ± 0.056
4 | PWLLHTPLSLVF | 0.434 ± 0.0077 | 0.321 ± 0.032 | 0.356 ± 0.018 | 0.335 ± 0.017 | 0.403 ± 0.0063 | 0.3182 ± 0.00076 | 0.349 ± 0.0058 | 0.4 ± 0.0051
5 | QCLSYFFPVPVA | 0.258 ± 0.035 | 0.073 ± 0.042 | 0.0838 ± 0.012 | 0.186 ± 0.03 | 0.227 ± 0.0065 | 0.147 ± 0.014 | 0.182 ± 0.02 | 0.192 ± 0.018
6 | QGRRKEKAVTLN | 0.3 ± 0.015 | 0.652 ± 0.12 | 0.685 ± 0.016 | 0.648 ± 0.041 | 0.729 ± 0.019 | 0.175 ± 0.035 | 0.193 ± 0.032 | 0.241 ± 0.022
7 | QKGLFYCVILYC | 0.316 ± 0.017 | 0.169 ± 0.019 | 0.253 ± 0.034 | 0.214 ± 0.027 | 0.3829 ± 0.0019 | 0.148 ± 0.017 | 0.156 ± 0.032 | 0.272 ± 0.0046
8 | RDGAHFLLILVC | 0.203 ± 0.059 | 0.0425 ± 0.0098 | 0.0913 ± 0.022 | 0.176 ± 0.033 | 0.2536 ± 0.0015 | 0.088 ± 0.025 | 0.125 ± 0.025 | 0.154 ± 0.019
9 | RFFFSSFPLLIS | 0.282 ± 0.013 | 0.327 ± 0.049 | 0.2628 ± 0.0026 | 0.349 ± 0.047 | 0.471 ± 0.014 | 0.207 ± 0.0091 | 0.199 ± 0.025 | 0.307 ± 0.016
10 | RFLVVVRFYWRC | 0.439 ± 0.044 | 0.288 ± 0.087 | 0.424 ± 0.013 | 0.245 ± 0.028 | 0.441 ± 0.0079 | 0.168 ± 0.015 | 0.214 ± 0.035 | 0.36 ± 0.0067
11 | RGFIYCSFVVRL | 0.412 ± 0.0052 | 0.4134 ± 0.00058 | 0.466 ± 0.029 | 0.328 ± 0.025 | 0.532 ± 0.012 | 0.301 ± 0.016 | 0.33 ± 0.021 | 0.465 ± 0.022
12 | RGLLLKILIASG | 0.237 ± 0.081 | 0.376 ± 0.029 | 0.463 ± 0.034 | 0.305 ± 0.019 | 0.48 ± 0.0095 | 0.188 ± 0.012 | 0.213 ± 0.026 | 0.382 ± 0.0086
13 | RGVGSGGLEGIG | 0.541 ± 0.061 | 0.509 ± 0.06 | 0.5457 ± 0.0032 | 0.5178 ± 0.001 | 0.543 ± 0.025 | 0.51 ± 0.004 | 0.514 ± 0.021 | 0.5404 ± 0.0019
14 | RGVPPPPWTPPP | 0.539 ± 0.062 | 0.706 ± 0.041 | 0.7482 ± 0.0045 | 0.6792 ± 0.0067 | 0.731 ± 0.02 | 0.653 ± 0.012 | 0.661 ± 0.0081 | 0.716 ± 0.014
15 | RIWRLLIIIIKK | 0.325 ± 0.12 | 0.387 ± 0.015 | 0.428 ± 0.11 | 0.236 ± 0.085 | 0.565 ± 0.056 | 0.232 ± 0.023 | 0.259 ± 0.016 | 0.456 ± 0.012
16 | RKRKKISEIIAI | 0.52 ± 0.047 | 0.664 ± 0.054 | 0.708 ± 0.075 | 0.589 ± 0.036 | 0.69 ± 0.039 | 0.519 ± 0.037 | 0.572 ± 0.041 | 0.637 ± 0.003
17 | RLPFPVVLFLLF | 0.352 ± 0.013 | 0.392 ± 0.033 | 0.465 ± 0.028 | 0.387 ± 0.041 | 0.515 ± 0.026 | 0.3 ± 0.008 | 0.28 ± 0.024 | 0.404 ± 0.011
18 | RLVMAVRVAAGG | 0.451 ± 0.034 | 0.509 ± 0.025 | 0.532 ± 0.0023 | 0.347 ± 0.033 | 0.55975 ± 0.00038 | 0.327 ± 0.011 | 0.349 ± 0.015 | 0.524 ± 0.031
19 | RMLSLFFPLRTL | 0.395 ± 0.035 | 0.651 ± 0.068 | 0.69994 ± 0.00052 | 0.624 ± 0.02 | 0.724 ± 0.024 | 0.196 ± 0.011 | 0.243 ± 0.048 | 0.4527 ± 0.0036
20 | RNWVVDGWRRFP | 0.282 ± 0.069 | 0.656 ± 0.03 | 0.7425 ± 0.0034 | 0.684 ± 0.019 | 0.73543 ± 0.00011 | 0.17 ± 0.0075 | 0.192 ± 0.039 | 0.525 ± 0.031

Row | Sequence | protein stability index (Saccharomyces cerevisiae [1]) | protein stability index (Saccharomyces cerevisiae [2]; [3]) | protein stability index (Saccharomyces cerevisiae [2]; [4]) | protein stability index (Saccharomyces cerevisiae [2]; [5]) | protein stability index (Saccharomyces cerevisiae [2]; [6]) | protein stability index (Saccharomyces cerevisiae [2]; [7]) | protein stability index (Saccharomyces cerevisiae [2]; [8]) | protein stability index (Saccharomyces cerevisiae [2]; [9])
21 | RPCLSALRFRFF | 0.206 ± 0.015 | 0.68 ± 0.037 | 0.764 ± 0.029 | 0.655 ± 0.042 | 0.727 ± 0.064 | 0.141 ± 0.023 | 0.162 ± 0.026 | 0.3204 ± 0.00076
22 | RPHPLHIPRRLA | 0.238 ± 0.028 | 0.624 ± 0.054 | 0.6848 ± 0.0035 | 0.684 ± 0.01 | 0.692 ± 0.047 | 0.146 ± 0.011 | 0.216 ± 0.072 | 0.391 ± 0.037
23 | RQINEKKKLYMI | 0.215 ± 0.033 | 0.513 ± 0.029 | 0.673 ± 0.14 | 0.639 ± 0.024 | 0.727 ± 0.041 | 0.1 ± 0.013 | 0.102 ± 0.028 | 0.182 ± 0.029
24 | RRGLIFFLCCPA | 0.466 ± 0.053 | 0.38308 ± 5.8e-05 | 0.4335 ± 0.0019 | 0.336 ± 0.027 | 0.472 ± 0.013 | 0.31 ± 0.0072 | 0.332 ± 0.039 | 0.432 ± 0.011
25 | RRLYERNKNNKQ | 0.435 ± 0.072 | 0.696 ± 0.024 | 0.741 ± 0.049 | 0.611 ± 0.036 | 0.729 ± 0.061 | 0.311 ± 0.019 | 0.387 ± 0.067 | 0.649 ± 0.013
26 | RRRRGGQSPALR | 0.711 ± 0.015 | 0.651 ± 0.049 | 0.674 ± 0.0087 | 0.71 ± 0.032 | 0.6928 ± 0.0059 | 0.735 ± 0.022 | 0.717 ± 0.03 | 0.6636 ± 0.0065
27 | RRTTIFDTKEPP | 0.462 ± 0.017 | 0.561 ± 0.02 | 0.563 ± 0.028 | 0.523 ± 0.062 | 0.5752 ± 0.0014 | 0.532 ± 0.028 | 0.511 ± 0.019 | 0.5689 ± 0.0054
28 | RRVFPLIIVLLF | 0.202 ± 0.0087 | 0.115 ± 0.023 | 0.152 ± 0.014 | 0.172 ± 0.031 | 0.279 ± 0.016 | 0.174 ± 0.0077 | 0.126 ± 0.022 | 0.221 ± 0.013
29 | RSCKSIRGIFVC | 0.315 ± 0.027 | 0.606 ± 0.068 | 0.7199 ± 0.0018 | 0.543 ± 0.018 | 0.719 ± 0.022 | 0.2 ± 0.0066 | 0.229 ± 0.02 | 0.388 ± 0.013
30 | RSFPCITVFIRA | 0.4235 ± 0.0035 | 0.514 ± 0.011 | 0.469 ± 0.029 | 0.328 ± 0.036 | 0.50913 ± 0.00021 | 0.325 ± 0.03 | 0.323 ± 0.023 | 0.5088 ± 0.0019
31 | RSKWEKLDKIVS | 0.455 ± 0.0083 | 0.675 ± 0.032 | 0.777 ± 0.045 | 0.629 ± 0.051 | 0.681 ± 0.0091 | 0.314 ± 0.022 | 0.396 ± 0.047 | 0.575 ± 0.018
32 | RVCVFVLFGLCF | 0.383 ± 0.011 | 0.352 ± 0.041 | 0.401 ± 0.0075 | 0.324 ± 0.04 | 0.48 ± 0.0059 | 0.309 ± 0.0047 | 0.315 ± 0.022 | 0.441 ± 0.0053
33 | RWGLCFVHVTMF | 0.173 ± 0.011 | 0.0369 ± 0.011 | 0.0963 ± 0.011 | 0.149 ± 0.046 | 0.215 ± 0.015 | 0.115 ± 0.01 | 0.106 ± 0.039 | 0.152 ± 0.014
34 | RWRLWVGWWVVG | 0.12 ± 0.0055 | 0.4532 ± 0.0039 | 0.587 ± 0.0088 | 0.456 ± 0.022 | 0.601 ± 0.013 | 0.1043 ± 0.00095 | 0.118 ± 0.0076 | 0.142 ± 0.017
35 | RYRVRIVVFGLV | 0.14 ± 0.018 | 0.407 ± 0.018 | 0.485 ± 0.068 | 0.365 ± 0.015 | 0.59 ± 0.032 | 0.075 ± 0.02 | 0.088 ± 0.046 | 0.0807 ± 0.0076
36 | SCFCFRVLLCSF | 0.383 ± 0.0064 | 0.333 ± 0.041 | 0.348 ± 0.0054 | 0.336 ± 0.023 | 0.402 ± 0.019 | 0.325 ± 0.021 | 0.297 ± 0.019 | 0.364 ± 0.0086
37 | SCLFMLFPLVSV | 0.432 ± 0.0046 | 0.475 ± 0.0048 | 0.505 ± 0.015 | 0.421 ± 0.031 | 0.529 ± 0.01 | 0.412 ± 0.0097 | 0.409 ± 0.033 | 0.5013 ± 0.0033
38 | SCLLVVVSTSGN | 0.433 ± 0.0062 | 0.5364 ± 0.0018 | 0.573 ± 0.0061 | 0.404 ± 0.043 | 0.611 ± 0.0019 | 0.374 ± 0.015 | 0.4057 ± 0.002 | 0.588 ± 0.022
39 | SFFVCVRVFGCC | 0.337 ± 0.021 | 0.315 ± 0.012 | 0.369 ± 0.011 | 0.255 ± 0.042 | 0.44 ± 0.0095 | 0.2075 ± 0.0016 | 0.239 ± 0.018 | 0.398 ± 0.011
